Laboratory results taken from IntAct's records for PubMed 29039417.

B1: Protein PTHB1 (Homo sapiens), Q3SYG4 (parent)
chain: MSLFKARDWWSTILGDKEEFDQGCLCLANVDNSGNGQDKIIVGSFMGYLRIFSPHPAKTGDGAQAEDLLLEVDLRDPVLQVEVGKFVSGTEMLHLAVLHSRKLCVYSVSGTLGNVEHGNQCQMKLMYEHNLQRTACNMTYGSFGGVKGRDLICIQSMDGMLMVFEQESYAFGRFLPGFLLPGPLAYSSRTDSFLTVSSCQQVESYKYQVLAFATDADKRQETEQQKLGSGKRLVVDWTLNIGEQALDICIVSFNQSASSVFVLGERNFFCLKDNGQIRFMKKLDWSPSCFLPYCSVSEGTINTLIGNHNNMLHIYQDVTLKWATQLPHIPVAVRVGCLHDLKGVIVTLSDDGHLQCSYLGTDPSLFQAPNVQSRELNYDELDVEMKELQKIIKDVNKSQGVWPMTEREDDLNVSVVVSPNFDSVSQATDVEVGTDLVPSVTVKVTLQNRVILQKAKLSVYVQPPLELTCDQFTFEFMTPDLTRTVSFSVYLKRSYTPSELEGNAVVSYSRPTDRNPDGIPRVIQCKFRLPLKLICLPGQPSKTASHKITIDTNKSPVSLLSLFPGFASQSDDDQVNVMGFHFLGGARITVLASKTSQRYRIQSEQFEDLWLITNELILRLQEYFEKQGVKDFACSFSGSIPLQEYFELIDHHFELRINGEKLEELLSERAVQFRAIQRRLLARFKDKTPAPLQHLDTLLDGTYKQVIALADAVEENQGNLFQSFTRLKSATHLVILLIALWQKLSADQVAILEAAFLPLQEDTQELGWEETVDAAISHLLKTCLSKSSKEQALNLNSQLNIPKDTSQLKKHITLLCDRLSKGGRLCLSTDAAAPQTMVMPGGCTTIPESDLEERSVEQDSTELFTNHRHLTAETPRPEVSPLQGVSE
partner: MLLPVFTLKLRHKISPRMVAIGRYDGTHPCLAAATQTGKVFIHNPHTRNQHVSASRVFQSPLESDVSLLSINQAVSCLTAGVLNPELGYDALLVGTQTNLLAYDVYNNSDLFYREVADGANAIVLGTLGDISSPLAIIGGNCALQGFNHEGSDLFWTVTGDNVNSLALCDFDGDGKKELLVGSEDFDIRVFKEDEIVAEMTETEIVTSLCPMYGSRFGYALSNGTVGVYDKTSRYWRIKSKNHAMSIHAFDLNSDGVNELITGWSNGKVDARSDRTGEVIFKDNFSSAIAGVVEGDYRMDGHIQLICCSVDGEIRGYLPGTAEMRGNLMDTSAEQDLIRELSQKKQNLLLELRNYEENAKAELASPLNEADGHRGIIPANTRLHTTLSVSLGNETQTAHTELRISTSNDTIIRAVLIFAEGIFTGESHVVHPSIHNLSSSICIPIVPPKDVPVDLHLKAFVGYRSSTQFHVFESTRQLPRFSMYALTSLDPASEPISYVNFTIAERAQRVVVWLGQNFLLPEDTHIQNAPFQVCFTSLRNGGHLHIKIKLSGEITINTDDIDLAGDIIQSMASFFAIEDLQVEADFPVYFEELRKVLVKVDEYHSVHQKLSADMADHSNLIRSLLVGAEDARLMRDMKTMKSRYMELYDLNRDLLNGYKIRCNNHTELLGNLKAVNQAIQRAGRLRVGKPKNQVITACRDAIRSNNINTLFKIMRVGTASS

Variants of: B1
Details: with bbs2_human BBS2, Q9BXC9

| Variant | effect of a mutation on the interaction |
| --- | --- |
| T589A | with no effect |
| T589E | with no effect |
| T589K | with no effect |
| T589S | disrupting interaction strength |
| Q621A | with no effect |
| Q621E | with no effect |
| Q621K | with no effect |
| R619E | with no effect |
| R619K | with no effect |
| R619A | with no effect |
| F624K | with no effect |
| F624E | with no effect |
| F624A | with no effect |
| F624N | disrupting interaction strength |
| T613A | with no effect |
| T613K | with no effect |
| T613E | with no effect |
| T613I | disrupting interaction strength |
| K594E | with no effect |
| K594A | with no effect |
| L611K | with no effect |
| L611E | with no effect |
| L611A | with no effect |

| Variant | effect of a mutation on the interaction |
| --- | --- |
| G584A | with no effect |
| G584K | with no effect |
| G584E | with no effect |
| C634E | with no effect |
| C634K | with no effect |
| C634A | with no effect |
| T595E | with no effect |
| T595I | disrupting interaction strength |
| T595S | disrupting interaction strength |
| T595K | with no effect |
| T595A | with no effect |
| E622A | with no effect |
| E622K | with no effect |
| W610E | with no effect |
| W610K | with no effect |
| W610A | with no effect |
| E604K | with no effect |
| E604A | with no effect |
| S593A | with no effect |
| S593E | with no effect |
| S593K | with no effect |
| G628E | disrupting interaction strength |
| G628A | with no effect |

| Variant | effect of a mutation on the interaction |
| --- | --- |
| G628K | with no effect |
| V590K | with no effect |
| V590E | with no effect |
| V590A | with no effect |
| F636E | with no effect |
| F636K | with no effect |
| F636A | with no effect |
| N614K | with no effect |
| N614E | with no effect |
| N614A | with no effect |
| I612K | with no effect |
| I612E | with no effect |
| I612A | with no effect |
| R600K | with no effect |
| R600A | with no effect |
| R600G | disrupting interaction strength |
| R600E | with no effect |
| K630E | with no effect |
| K630A | with no effect |
| R598E | with no effect |
| R598L | disrupting interaction strength |
| R598K | with no effect |
| R598A | with no effect |

| Variant | effect of a mutation on the interaction |
| --- | --- |
| R587E | with no effect |
| R587K | with no effect |
| R587T | disrupting interaction strength |
| R587A | with no effect |
| A633K | with no effect |
| A633E | with no effect |
| A633V | disrupting interaction strength |
| Y623K | with no effect |
| Y623E | with no effect |
| Y623A | with no effect |
| S603K | with no effect |
| S603A | with no effect |
| S603E | with no effect |
| S637E | with no effect |
| S637A | with no effect |
| S637K | with no effect |
| L609A | with no effect |
| L609E | with no effect |
| L609K | with no effect |
| L620K | with no effect |
| L620A | with no effect |
